The DeepSol protein solubility set

assay: soluble on expression in E. coli; label from the status in PepcDB or PDB records

Row | Sequence | soluble on expression in E. coli
1 | SDPRGTKRGAEKTEVAEPRNKLPRPAPSLPTDPALYSGPFPFYRRPSELGCFSLDAQRQYHGDARALRYYSPPPTNGPGPNFDLRDGYPDRYQPRDEEVQERLDHLLCWLLEHRGRLEGGPGWLAEAIVTWRGHLTKLLTTPYERQEGWQLAASRFQGTLYLSEVETPNARAQRLARPPLLRELMYMGYKFEQYMCAGELPLLHSPLPLPRG | soluble
2 | SDSQSSILEENLEKILRGEGLEFDSVAEQVDPVTLRKNVCYIVGAVIFNSKEEVLMVQEAKRECYGRWYLPAGRMEECESILEALQREVREEAGIDCQPITLLLVQEQGPRWVRFIFLAEETGGSLKTTAEADDESLQAHWWDRKSPLPLRAHDILSLIDAGLKYRRNPWFPVTQPVDFPCHVVCQRLFLTFISSRADADDRLWLLMSNNNTSHHPRLPIVVSFRTYISKAVSKLIEDCMPSSYISVHIRGILGVQHNGRIPGKTDGICFNTLVLLENTEEGAEIGSPPSLETDCYRWQEVTNQGLKAKIIERIKDGSVLPFQSL | soluble
3 | SDTRQLPNRPVEVTIMGLGCAQMGNLYRVTPYEESKGAFDKAWESGMRYFDTAPFYGYTRSERRLGTMVTEHDRGDYTLSTKVGRVMVPDETVGPEEDAYIAPLPFRPVYDYSYDGILRSFEASQQRLGILKPDILYVHDIGSHTHGEKHQHYWEQLTTGGGFRALGKLRDEGSTGAVGLGVNEWEIINDAMDVFDIDVAMLAGRYTLLEQQSLAFMNRCAESGVAIVVAGAFNSGILAGNRKFNYADAPADILKRVDALHNVCEELGVSLQAAALQFPLAHPASVTVVSGARNAQQLASNIEWFEQSIPDEFWSELHK | not soluble
4 | SEQETRGANEAIDFNDELRNRREKLAALRQQGVAFPNDFRRDHTSDQLHEEFDAKDNQELESLNIEVSVAGRMMTRRIMGKASFVTLQDVGGRIQLYVARDSLPEGVYNDQFKKWDLGDIIGARGTLFKTQTGELSIHCTELRLLTKALRPLPDKFHGLQDQEVRYRQRYLDLIANDKSRQTFVVRSKILAAIRQFMVARGFMEVETPMMQVIPGGASARPFITHHNALDLDMYLRIAPELYLKRLVVGGFERVFEINRNFRNEGISVRHNPEFTMMELYMAYADYHDLIELTESLFRTLAQEVLGTTKVTYGEHVFDFGKPFEKLTMREAIKKYRPETDMADLDNFDAAKALAESIGITVEKSWGLGRIVTEIFDEVAEAHLIQPTFITEYPAEVSPLARRNDVNPEITDRFEFFIGGREIGNGFSELNDAEDQAERFQEQVNAKAAGDDEAMFYDEDYVTALEYGLPPTAGLGIGIDRMIMLFTNSHTIRDVILFPAMRPQK | soluble
5 | SESDSEMVPFPQLPMPIENNYRACTIPYRFPSDDPKKATPNEISWINVFANSIPSFKKRAESDITVPDAPARAEKFAERYAGILEDLKKDPESHGGPPDGILLCRLREQVLRELGFRDIFKKVKDEENAKAISLFPQVVSLSDAIEDDGKRLENLVRGIFAGNIFDLGSAQLAEVFSRDGMSFLASCQNLVPRPWVIDDLENFQAKWINKSWKKAVIFVDNSGADIILGILPFARELLRRGAQVVLAANELPSINDITCTELTEILSQLKDENGQLLGVDTSKLLIANSGNDLPVIDLSRVSQELAYLSSDADLVIVEGMGRGIETNLYAQFKCDSLKIGMVKHLEVAEFLGGRLYDCVFKFNEVQS | soluble
6 | SESKKRELFSQIKDLKGTSGNVALLELGCGTGANFQFYPQGCKVTCVDPNPNFEKFLTKSMAENRHLQYERFIVAYGENMKQLADSSMDVVVCTLVLCSVQSPRKVLQEVQRVLRPGGLLFFWEHVAEPQGSRAFLWQRVLEPTWKHIGDGCHLTRETWKDIERAQFSEVQLEWQPPPFRWLPVGPHIMGKAVK | soluble
7 | SEWLKSTDYGKYEGLTKNYMDYLSRLYEREIKDFFEVAKIKMTGTTKESKKFGLHGSSGKLTGSTSSLNKLSVQSSGNRRSQSSSLLDMGNMSASDLDVADRTKFDKIFEQVLSELEPLCLAEQDFISKFFKLQQHQSMPGTMAEAEDLDGGTLSRQHNCGTPLPVSSEKDMIRQMMIKIFRCIEPELNNLIALGDKIDSFNSLYMLVKMSHHVWTAQNVDPASFLSTTLGNVLVTVKRNFDKCISNQIRQMEEVKISKKSKVGILPFVAEFEEFAGLAESIFKNAERRGDLDKAYTKLIRGVFVNVEKVANESQKTPRDVVMMENFHHIFATLSRLKISCLEAEKKEAKQKYTDHLQSYVIYSLGQPLEKLNHFFEGVEARVAQGIREEEVSYQLAFNKQELRKVIKEYPGKEVKKGLDNLYKKVDKHLCEEENLLQVVWHSMQDEFIRQYKHFEGLIARCYPGSGVTMEFTIQDILDYCSSIAQSH | soluble
8 | SFPNRRIVTTVFNDEGIQFLVTRYIKALNPPQQLLDIFLHNSNATFDLIARFVSLIPFVPNTPDENDGSDIWMTSEHCISLAIGNKEEHAILLCNFFLYFGKKALVLLGTSVLEGHVAYVVTQETNEYLLWNPSTGQCYKQFDPFCPLKSVDCLFDDRNVWFNIQQNNTPMAVFFDYSKESFWKQLLPKNVQGTKIQSIQVTGFPIQMPYIDVQSIIDAVYQTGIHSAEFPQTEFALAVYIHPYPNNILSVWVYLASLVQHQ | soluble
9 | SFVPSQKTYQGNYGFHLGFLQSGTAKSVMCTYSPPLNKLFCQLAKTCPVQLWVSATPPAGSRVRAMAIYKKSQHMTEVVRRCPHHERCSDGDGLAPPQHLIRVEGNLYPEYLEDRQTFRHSVVVPYEPPEAGSEYTTIHYKYMCNSSCMGGMNRRPILTIITLEDSSGNLLGRDSFEVRVCACPGRDRRTEEENFRKKEVL | soluble
10 | SGDAASHEERMNNYRKRVGRLFMEQKAAQPDAVKLPSGLVFQRIARGSGKRAPAIDDKCEVHYTGRLRDGTVFDSSRERGKPTTFRPNEVIKGWTEALQLMREGDRWRLFIPYDLAYGVTGGGGMIPPYSPLEFDVELISIKDGGKGRTAEEVDEILRKAEEDREDM | soluble
11 | SGDPNSRKKQALNRLRAQLRKKKESLADQFDFKMYIAFVFKEKKKKSALFEVSEVIPVMTNNYEENILKGVRDSSYSLESSLELLQKDVVQLHAPRYQSMRRDVIGCTQEMDFILWPRNDIEKIVCLLFSRWKESDEPFRPVQAKFEFHHGDYEKQFLHVLSRKDKTGIVVNNPNQSVFLFIDRQHLQTPKNKATIFKLCSICLYLPQEQLTHWAVGTIEDHLRPYMPE | soluble
12 | SGEKSENCGVPEDLLNGLKVTDTQEAECAGPPVPDPKNQHSQSKLLRDDEAHLQEDQGEEECFHDCSASFEEEPGADKVENKSNEDVNSSELDEEYLIELKKNMSDEEKQKRREESTRLKEEGNEQFKKGDYIEAESSYSRALEMCPSCFQKERSILFSNRAAARMKQDKKEMAINDCSKAIQLNPSYIRAILRRAELYEKTDKLDEALEDYKSILEKDPSIHQAREACMRLPKQIEERNERLKEEMLGKLKDLGNLVLRPFGLSTENFQIKQDSSTGSYSINFVQNPNNNR | soluble
13 | SGGRRWNWVQSWPVWKYFKEYFPICLVKTQDLDPGHNYIFGFHPHGIFVPGAFGNFCTKYSDFKKLFPGFTSYLHVAKIWFCFPLFREYLMSNGPVSVSKESLSHVLSKDGGGNVSIIVLGGAKEALEAHPGTFTLCIRQRKGFVKMALTHGASLVPVFSFGENDLYKQINNPKGSWLRTIQDAMYDSMGVALPLIYARGIFQHYFGIMPYRKLIYTVVGRPIPVQQILNPTSEQIEELHQTYLEELKKLFNEHKGKYGIPEHETLVFK | soluble
14 | SGIVPQLQNIVSTVNLGCKLDLKTIALRARNAEYNPKRFAAVIMRIREPRTTALIFSSGKMVCTGAKSEEQSRLAARKYARVVQKLGFPAKFLDFKIQNMVGSCDVKFPIRLEGLVLTHQQFSSYEPELFPGLIYRMIKPRIVLLIFVSGKVVLTGAKVRAEIYEAFENIYPILKGFRKTT | soluble
15 | SGNTSSERSGGEKTHRRESRSGKDGTRPKILMDSAEDGDLFQSDDAKEFLAWRQDQESDSKTPLEERPTVFRWKGPGKEIYLSGSFNNWATKIPLNKSHNNFVAIIDLPEGEHQYKFYVDGHWTLDPKEPVVTNKSGVVNNVIKVRKTDFEVFDALKTDSEKCADMSDLSSSPPGPYHQDPYSTKSEDKLRSPPILPPHLLQVLLNKDTGISCDPTLLPEPNHVMLNHLYALSIKDGVMVLSATHRYKKKYVTTLLYKPI | soluble
16 | SGSELIGRLAPRLGLAEPDMLRKAEEYLRLSRVKCVGLSARTTETSSAVMCLDLAASWMKCPLDRAYLIKLSGLNKETYQSCLKSFECLLGLNSNIGIRDLAVQFSCIEAVNMASKILKSYESSLPQTQQVDLDLSRPLFTSAALLSACKILKLKVDKNKMVATSGVKKAIFDRLCKQLEKIGQQVDREPGDVATPPRKRKKIVVEAPAKEMEKVEEMPHKPQKDEDLTQDYEEWKRKILENAASAQKATAE | soluble
17 | SHEWYAEKPFMLRSFLDRTVLQQAFESPETLTSLGFLESIGITGHNAELDDDRPEKTDALFAEMKKVKETLLTYDDSDLDESQLLSKEIAMYLLDILLVSEPYRYHNYPVNQLFGIQNGYPSFMDAQHQVNSVGDAENYIARLNKVKVKFSQNLEGLKLREEKGILPPRFVIDRVLEEMTAFVAKPAEENILYSSLKAKLSDAEDISPAEQTRLLNLAKEEIIASVHPAYQLLIDYFNQVADKSTTDDGIWKLPDGDKVYAQALKFFTTTDYSAGEIHNIGLHEVDRIQLDILTILEKENYDVSQGFTAAIETLAAQDEFYYPDTKAGREQILTDYQTILDEINAGLESAFRIRPKASMKVRRIPEFKEKTAPGAYYQQPSIDGSRPGMFFANLYDIKATPKYSMRTLAYHEGIPGHHFQIAIAMELEGMPLFRRISPFTAYTEGWALYTERLAWDLGFQDDPFDNIGRLQAELFRAVRLVVDTGIHHKRWTRQEAIDYMVANTGMAHSDVVSEIERYIVMPGQATSYKIGLMKILELRKKAKASLGDKFDLRDFHDVVLKNGAVPLDILTRLVDQYIADKSS | not soluble
18 | SITSTVLPPVYNQQNEDTCIIRISVEDNNGNMYKSIMLTSQDKTPAVIQRAMSKHNLESDPAEEYELVQVISEDKELVIPDSANVFYAMNSQVNFDFILRKKN | soluble
19 | SKEGSVAPKERINIKYIPATGDAQAEVELPLKTLVVGDFKGHAEQTPLEERATVTVDKNNFEAVMRESELKITATVKNKLTDDENAELPVELNFKSLADFAPDAVASQVPELKKLIELREALVALKGPLGNIPAFRERLQSLLNSEESREKLLAELNLL | not soluble
20 | SKEHQAVSLEAARQSLVLLKNETNLLPLSKSIRSIAVIGPNANEQTQLICRYGPANAPIKTVYQGIKELLPHTEVIYKKGCDIIDPHFPESEILDFPKTAEEVQLMEEAIRAAKQAEVVVMVLGGNELTVREDRSRTSLNLPGRQEELLKAVCATGKPIILVMLDGRASSINYAAAHIPAILHAWFPGEFCGQAVAEALFGDYNPGGRLAVTFPKSVGQIPFAFPFKPGSDESSSTSVYGALYPFGHGLSYTTF | not soluble
21 | SKFIAKQSVGAEVIDTPRTEEEAWLLNTVEAQARQWNLKTPEVAIYHSPEPNAFATGASRNSSLIAVSTGLLDHMTRDEVEAVLAHEMAHVGNGDM | not soluble
22 | SKGRPQIDSSKATDKINPMDFTFVEINEAVKLVEMGVATPQDIDTAIKLGLNRPFGPFELAKQFGAEQIAKRLEELAKQFGKKIFEPAKTLKEGKLEELLKAGKAE | soluble
23 | SKQDASRNAAYTVDCEDYVHVVEFNPFENGDSGNLIAYGGNNYVVIGTCTFQEEEADVEGIQYKTLRTFHHGVRVDGIAWSPETRLDSLPPVIKFCTSAADMKIRLFTSDLQDKNEYKVLEGHTDFINGLVFDPKEGQEIASVSDDHTCRIWNLEGVQTAHFVLHSPGMSVCWHPEETFKLMVAEKNGTIRFYDLLAQQAILSLESEQVPLMSAHWCLKNTFKVGAVAGNDWLIWDITRSSYPQNKRPVHMDRACLFRWSTISENLFATTGYPGKMASQFQIHHLGHPQPILMGSVAVGSGLSWHRTLPLCVIGGDHKLLFWVTEV | soluble
